The values below come from article PMC1971552, “A chelating derivative of alpha-melanocyte stimulating hormone as a potential imaging agent for malignant melanoma” (British Journal of Cancer, 1990).

This series has as its system DBA/2 mice bearing Cloudman S91 melanomas. As to conditions: mouse, in vivo. The source says:
Br. J. Cancer (1990), 62, 919-922 C) Macmillan Press Ltd., 1990 A chelating derivative of oa-melanocyte stimulating hormone as a potential imaging agent for malignant melanoma D.R. Bard, C.G. Knight & D.P. Page-Thomas Strangeways Research Laboratory, Worts' Causeway, Cambridge CB] 4RN, UK Summary A chelating derivative of a-melanocyte stimulating hormone (MSH) has been synthesised, in which two molecules of the hormone are cross-linked by diethylenetriamine pentaacetic acid (DTPA). […] When DBA/2 mice bearing the same tumour were injected with bisMSH-DTPA labelled with the 'y-emitting isotope indium-1Il ("'In), the radioactivity became rapidly associated with the melanoma tissue. […] Uptake of radioactivity by the tumours was inhibited by a 200-fold molar excess of MSH, whereas uptake by liver, kidney, spleen, lung, brain, eye and skin was unaffected. We conclude that bisMSH-DTPA may offer an alternative to antibody targeting in the imaging of malignant melanoma. Malignant melanoma is characterised by a tendency to meta- stasise early and to be resistant to most conventional therapies. The initial surgical management of the disease would benefit if it were possible to discover whether metas- tasis had taken place and to which locations. […]

As for `CSCC[C@H](NC(=O)[C@H](CO)NC(=O)[C@H](Cc1ccc(O)cc1)NC(=O)[C@H](CO)NC(=O)CN(CCN(CCN(CC(=O)O)CC(=O)N[C@@H](CO)C(=O)N[C@@H](Cc1ccc(O)cc1)C(=O)N[C@@H](CO)C(=O)N[C@@H](CCSC)C(=O)N[C@@H](CCC(=O)O)C(=O)N[C@@H](Cc1c[nH]cn1)C(=O)N[C@@H](Cc1ccccc1)C(=O)N[C@@H](CCCNC(=N)N)C(=O)N[C@@H](Cc1c[nH]c2ccccc12)C(=O)NCC(=O)N[C@@H](CCCCN)C(=O)N1CCC[C@H]1C(=O)N[C@H](C(N)=O)C(C)C)CC(=O)O)CC(=O)O)C(=O)N[C@@H](CCC(=O)O)C(=O)N[C@@H](Cc1c[nH]cn1)C(=O)N[C@@H](Cc1ccccc1)C(=O)N[C@@H](CCCNC(=N)N)C(=O)N[C@@H](Cc1c[nH]c2ccccc12)C(=O)NCC(=O)N[C@@H](CCCCN)C(=O)N1CCC[C@H]1C(=O)N[C@H](C(N)=O)C(C)C` [bisMSH-DTPA], the “crossing of the blood-brain barrier” value is recorded as “unable to cross the blood-brain barrier”. Moreover, the “maximum level in the blood following injection” value (ip) is “about 0.8 µg ml-1”.
